This passage reports complement-dependent cytotoxicity (CCK8 cell survival, baby rabbit serum) (% of cells dead) results from US20250325640A1.

The assay has as its target CD20 on Daudi cells (UniProt P11836). Description: cell-based or functional assay.

“Rituximab (anti-CD20 IgG, Mabthera) (antibody)”: the complement-dependent cytotoxicity (CCK8 cell survival, baby rabbit serum) (% of cells dead) stood at 70.
